From publication PMC12484072

Molecular target: SaNsrP, transmembrane permease of the BceAB-type ABC transporter SaNsrFP from Streptococcus agalactiae (S. agalactiae)
Assay: SAXS

“SaNsrF, nucleotide-binding domain of the BceAB-type ABC transporter SaNsrFP from Streptococcus agalactiae (natural protein)” gave a stoichiometry N of 2.
